Experimental data as given in the supplement of paper PMC11908140.

B1: library; numbered along this chain (parent)
chain: MRKPRAAVGSGHRKQAASQEGRQKHAKNNSQAKPSACDGLARQPEEVVLQASVSSYHLFRDVAEVTAFRGSLLSWYDQEKRDLPWRRRAEDEMDLDRRAYAVWVSEVMLQQTQVATVINYYTGWMQKWPTLQDLASASLEEVNQLWAGLGYYSRGRRLQEGARKVVEELGGHMPRTAETLQQLLPGVGRYTAGAIASIAFGQATGVVDGNVARVLCRVRAIGADPSSTLVSQQLWGLAQQLVDPARPGDFNQAAMELGATVCTPQRPLCSQCPVESLCRARQRVEQEQLLASGSLSGSPDVEECAPNTGQCHLCLPPSEPWDQTLGVVNFPRKASRKPPREESSATCVLEQPGALGAQILLVQRPNSGLLAGLWEFPSVTWEPSEQLQRKALLQELQRWAGPLPATHLRHLGEVVHTFSHIKLTYQVYGLALEGQTPVTTVPPGARWLTQEEFHTAAVSTAMKKVFRVYQGQQPGTCMGSKRSQVSSPCSRKKPRMGQQVLDNFFRSHISTDAHSLNSAAQ

Variants of: B1
Assay: 8OG:A repair function score (normalized; synonymous = 0, nonsense = -1) (normalized log-likelihood score); higher = more repair activity (WT-like)
Conditions: with 8OG:A DNA repair reporter (GFP) in HEK-293 MUTYH KO cells
How it was run: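 Per-tile Rosace fitness scores were converted to a normalized repair function score anchored on synonymous and nonsense distributions. That scale puts synonymous medians at 0 and nonsense medians at -1. Variants with starting counts under 300 counts per million were discarded. Input came from sorting viable mCherry+ MUTYH knockout HEK-293 cells, carrying lentiviral MUTYH cDNA NNN codon-scan libraries in 10 pg/ml doxycycline and an 8OG:A GFP repair reporter, into GFP+ and GFP− bins at 72 h, three replicates per tile, followed by tile amplicon sequencing.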
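Further: cells sorted at 72 h after reporter transfection.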

For K422N, which “8OG:A repair function score” value is on record?
The value was -0.21.

With K422S as the variant, how does the “8OG:A repair function score” value read?
Its value is -0.227.

Which “8OG:A repair function score” value does the source give for K422L here?
The value was -0.353.

With K422R as the variant, how does the “8OG:A repair function score” value read?
The value was 0.334.

For K422I, which “8OG:A repair function score” value is on record?
The value was -0.297.

Which “8OG:A repair function score” value does the source give for K422H here?
Its value is -0.22.

How did the “8OG:A repair function score” value turn out when K422G was run?
The value was -0.491.

K422C was tested. Which “8OG:A repair function score” value did it give?
Its value is -0.221.

How did the “8OG:A repair function score” value turn out when K422E was run?
The value was -0.492.

How did the “8OG:A repair function score” value turn out when K422P was run?
The value was -1.09.

K422F was tested. Which “8OG:A repair function score” value did it give?
The value was -0.584.

With K422V as the variant, how does the “8OG:A repair function score” value read?
Its value is -0.231.

How did the “8OG:A repair function score” value turn out when K422W was run?
Its value is -0.317.

For K422T, which “8OG:A repair function score” value is on record?
Its value is -0.156.

K422D was tested. Which “8OG:A repair function score” value did it give?
Its value is -0.458.

With K422A as the variant, how does the “8OG:A repair function score” value read?
Its value is -0.0566.

Which “8OG:A repair function score” value does the source give for K422Q here?
The value was 0.195.

Which “8OG:A repair function score” value does the source give for K422M here?
The value was -0.42.

With K422Y as the variant, how does the “8OG:A repair function score” value read?
Its value is -0.355.

Which “8OG:A repair function score” value does the source give for Y428K here?
The value was -0.832.

With Y428M as the variant, how does the “8OG:A repair function score” value read?
Its value is -0.656.

With Y428E as the variant, how does the “8OG:A repair function score” value read?
Its value is -1.1.

Y428Q was tested. Which “8OG:A repair function score” value did it give?
Its value is -1.2.

For Y428D, which “8OG:A repair function score” value is on record?
Its value is -1.09.

How did the “8OG:A repair function score” value turn out when Y428T was run?
The value was -1.1.

For Y428H, which “8OG:A repair function score” value is on record?
Its value is -0.753.

How did the “8OG:A repair function score” value turn out when Y428S was run?
The value was -0.915.

Y428A was tested. Which “8OG:A repair function score” value did it give?
The value was -1.05.

How did the “8OG:A repair function score” value turn out when Y428V was run?
The value was -1.03.

With Y428P as the variant, how does the “8OG:A repair function score” value read?
Its value is -1.18.

How did the “8OG:A repair function score” value turn out when Y428F was run?
The value was -0.153.

Y428I was tested. Which “8OG:A repair function score” value did it give?
The value was -1.03.

Y428R was tested. Which “8OG:A repair function score” value did it give?
Its value is -1.14.

For Y428N, which “8OG:A repair function score” value is on record?
Its value is -1.01.

Y428L was tested. Which “8OG:A repair function score” value did it give?
Its value is -0.828.

With Y428C as the variant, how does the “8OG:A repair function score” value read?
The value was -0.883.

How did the “8OG:A repair function score” value turn out when Y428G was run?
The value was -1.13.

Y428W was tested. Which “8OG:A repair function score” value did it give?
Its value is 0.228.

How did the “8OG:A repair function score” value turn out when L423S was run?
Its value is 0.137.

With L423D as the variant, how does the “8OG:A repair function score” value read?
Its value is -0.261.

For L423T, which “8OG:A repair function score” value is on record?
Its value is -0.513.

Which “8OG:A repair function score” value does the source give for L423R here?
Its value is -0.232.

L423P was tested. Which “8OG:A repair function score” value did it give?
The value was -0.683.

For L423K, which “8OG:A repair function score” value is on record?
The value was -0.269.

Which “8OG:A repair function score” value does the source give for L423M here?
The value was 0.142.

How did the “8OG:A repair function score” value turn out when L423E was run?
Its value is -0.289.

L423N was tested. Which “8OG:A repair function score” value did it give?
Its value is -0.091.

Which “8OG:A repair function score” value does the source give for L423W here?
The value was -0.0181.

For L423Y, which “8OG:A repair function score” value is on record?
Its value is -0.0686.

With L423A as the variant, how does the “8OG:A repair function score” value read?
The value was 0.0643.

Which “8OG:A repair function score” value does the source give for L423V here?
The value was -0.132.

How did the “8OG:A repair function score” value turn out when L423F was run?
Its value is -0.0863.

L423Q was tested. Which “8OG:A repair function score” value did it give?
Its value is 0.416.

L423G was tested. Which “8OG:A repair function score” value did it give?
Its value is 0.0807.

For L423H, which “8OG:A repair function score” value is on record?
The value was 0.0797.

With L423C as the variant, how does the “8OG:A repair function score” value read?
Its value is 0.0721.

L423I was tested. Which “8OG:A repair function score” value did it give?
Its value is -0.059.

For Y425L, which “8OG:A repair function score” value is on record?
Its value is -0.213.

For Y425G, which “8OG:A repair function score” value is on record?
Its value is -0.907.

For Y425N, which “8OG:A repair function score” value is on record?
The value was -0.608.

How did the “8OG:A repair function score” value turn out when Y425R was run?
Its value is -0.476.

How did the “8OG:A repair function score” value turn out when Y425S was run?
Its value is -0.31.

With Y425M as the variant, how does the “8OG:A repair function score” value read?
The value was 0.236.

For Y425Q, which “8OG:A repair function score” value is on record?
The value was -0.626.

How did the “8OG:A repair function score” value turn out when Y425F was run?
The value was -0.11.

How did the “8OG:A repair function score” value turn out when Y425I was run?
Its value is 0.315.

Which “8OG:A repair function score” value does the source give for Y425V here?
The value was 0.00816.

Y425T was tested. Which “8OG:A repair function score” value did it give?
Its value is -0.255.

Y425E was tested. Which “8OG:A repair function score” value did it give?
Its value is -0.544.

How did the “8OG:A repair function score” value turn out when Y425P was run?
The value was -0.934.

How did the “8OG:A repair function score” value turn out when Y425K was run?
Its value is -0.0804.

How did the “8OG:A repair function score” value turn out when Y425C was run?
The value was -0.509.

With Y425D as the variant, how does the “8OG:A repair function score” value read?
Its value is -0.805.

For Y425H, which “8OG:A repair function score” value is on record?
Its value is -0.0609.

With Y425A as the variant, how does the “8OG:A repair function score” value read?
The value was -0.637.

For Y425W, which “8OG:A repair function score” value is on record?
Its value is -0.328.

How did the “8OG:A repair function score” value turn out when I421Q was run?
The value was -0.51.

How did the “8OG:A repair function score” value turn out when I421P was run?
The value was -1.15.

Which “8OG:A repair function score” value does the source give for I421A here?
The value was -0.443.

With I421W as the variant, how does the “8OG:A repair function score” value read?
Its value is -0.59.

For I421T, which “8OG:A repair function score” value is on record?
Its value is -0.299.

Which “8OG:A repair function score” value does the source give for I421G here?
The value was -0.609.

How did the “8OG:A repair function score” value turn out when I421F was run?
Its value is -0.142.
